Assay results reported in paper PMC5339705, “OGG1-DNA interactions facilitate NF-κB binding to DNA targets”.

What was measured:
Details in all cases: protein: commercial;commercial; tags: ;; copies: 1;1; label: 5' biotin on strand 2; blunt
p65 (RelA);p50 (NF-kB1) [1] = target: T1, p65 (RelA);p50 (NF-kB1) (;, UniProt Q04206;P19838 1-551;1-433, |); test: EMSA; with OGG1 4 ng; higher than Wt; 10 mM Tris-HCl pH 8.0, 5 mM NaCl, 1 mM EDTA, 1 mM DTT, 0.1 mg/ml BSA, 0.1 µg/µl poly(dI-dC) (stated for NE reactions), 10 fmol probe, 10 µl, RT 5-10 min; 6% gel 0.5x TBE 4 °C
p65 (RelA);p50 (NF-kB1) [2] = target: T1, p65 (RelA);p50 (NF-kB1); test: EMSA; no OGG1; complex from 5 min; 10 mM Tris-HCl pH 8.0, 5 mM NaCl, 1 mM EDTA, 1 mM DTT, 0.1 mg/ml BSA, 0.1 µg/µl poly(dI-dC) (stated for NE reactions), 10 fmol probe, 10 µl, RT 5-10 min; 6% gel 0.5x TBE 4 °C
p65 (RelA);p50 (NF-kB1) [3] = target: T1, p65 (RelA);p50 (NF-kB1); test: EMSA; with OGG1 4 ng; highest shifted amount of κB1 oligos; 10 mM Tris-HCl pH 8.0, 5 mM NaCl, 1 mM EDTA, 1 mM DTT, 0.1 mg/ml BSA, 0.1 µg/µl poly(dI-dC) (stated for NE reactions), 10 fmol probe, 10 µl, RT 5-10 min; 6% gel 0.5x TBE 4 °C

T1 sequence (Q04206 whole entry, chain 1 of 2): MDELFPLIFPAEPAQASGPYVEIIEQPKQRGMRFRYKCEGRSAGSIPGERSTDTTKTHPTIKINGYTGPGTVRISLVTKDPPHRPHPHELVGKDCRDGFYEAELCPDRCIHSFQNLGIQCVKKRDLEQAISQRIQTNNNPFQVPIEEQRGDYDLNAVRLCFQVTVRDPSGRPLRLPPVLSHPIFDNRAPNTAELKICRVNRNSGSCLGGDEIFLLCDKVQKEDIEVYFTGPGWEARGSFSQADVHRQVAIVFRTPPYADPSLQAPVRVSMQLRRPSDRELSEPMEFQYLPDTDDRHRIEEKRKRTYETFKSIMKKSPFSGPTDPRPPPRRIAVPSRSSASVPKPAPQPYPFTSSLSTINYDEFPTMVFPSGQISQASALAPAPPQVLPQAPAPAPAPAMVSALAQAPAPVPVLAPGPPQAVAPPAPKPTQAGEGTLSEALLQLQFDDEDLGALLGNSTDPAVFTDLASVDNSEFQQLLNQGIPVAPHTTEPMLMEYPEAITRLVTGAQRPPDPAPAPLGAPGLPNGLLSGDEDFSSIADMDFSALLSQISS
T1 sequence (P19838 1-433, chain 2 of 2): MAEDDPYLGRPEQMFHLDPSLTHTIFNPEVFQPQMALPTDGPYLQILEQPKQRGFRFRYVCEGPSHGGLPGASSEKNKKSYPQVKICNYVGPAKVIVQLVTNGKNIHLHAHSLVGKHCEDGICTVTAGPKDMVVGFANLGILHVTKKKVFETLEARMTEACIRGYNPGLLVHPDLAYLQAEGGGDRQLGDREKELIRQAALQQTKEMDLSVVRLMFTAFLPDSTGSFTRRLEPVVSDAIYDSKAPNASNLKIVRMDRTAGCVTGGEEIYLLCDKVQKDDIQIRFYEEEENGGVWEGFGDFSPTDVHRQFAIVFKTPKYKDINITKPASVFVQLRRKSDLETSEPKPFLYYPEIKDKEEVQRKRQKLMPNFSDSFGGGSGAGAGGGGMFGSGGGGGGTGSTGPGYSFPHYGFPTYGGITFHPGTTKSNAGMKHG

B1: κB2-G3 (dsDNA)
DNA 1: TGAGGGGACCCTGAGCTCAGGGAATTTCCCTGG
DNA 2: CCAGGGAAATTCCCTGAGCTCAGGGTCCCCTCA
modifications: 8-oxoG at strand 1 position 4 (number label read as following the base)
binding result (p65 (RelA);p50 (NF-kB1) [1]): binds

B2: κB2-G4 (dsDNA)
DNA 1: B1 DNA 1
DNA 2: B1 DNA 2
modifications: 8-oxoG at strand 1 position 7
binding result (p65 (RelA);p50 (NF-kB1) [1]): binds

B3: κB2-G6 (dsDNA)
DNA 1: B1 DNA 1
DNA 2: B1 DNA 2
modifications: 8-oxoG at strand 2 position 23 (opposite C11 of strand 1)
binding result (p65 (RelA);p50 (NF-kB1) [1]): binds

B4: κB2-Wt (dsDNA)
DNA 1: B1 DNA 1
DNA 2: B1 DNA 2
binding result (p65 (RelA);p50 (NF-kB1) [2]): binds

B5: κB1-G3 (dsDNA)
DNA 1: TTCCCTGGTCCCCGGGCTTTTCCAGACATCG
DNA 2: CGATGTCTGGAAAAGCCCGGGGACCAGGGAA
modifications: 8-oxoG at strand 2 position 27 (opposite C5 of strand 1)
binding result (p65 (RelA);p50 (NF-kB1) [3]): binds
